Measured values reported in patent publication US4835253A, “Specific inhibitors of tissue kallikrein” (The University Hospital, priority 1987, dated 1989).

What was measured:
Type in all cases: biochemical, human
[1] = tested on: T1, CC(=O)N[C@@H](Cc1ccccc1)C(=O)N[C@@H](CCCN=C(N)N)C(=O)N[C@@H](CO)C(=O)N[C@H](C(=O)N[C@@H](CCC(N)=O)C(N)=O)C(C)C; assay: KM determination: hydrolysis of substrate analogues by HUK (HPLC, scintillation counting); details: other: hydrolysis by HUK, pH 9.0, 37 C, thirty minutes
T1 construct: Human urinary kallikrein (hereinafter "HUK") was highly purified using a modification of published methods; from tissue; host or cells: human urine
Method: (§1) Human urinary kallikrein (hereinafter "HUK") was highly purified using a modification of published methods that employ ultrafiltration, aprotinin-CH-sepharose affinity chromatography, and Sephadex G-100 gel filtration [ole-MoiYoi et al., Proc. Natl. Acad. Sci. USA 76: 3121-3125 (1979)]. […] The pH of each fraction was determined immediately upon elution, and the fraction was neutralized by addition of 2.0 ml of 2M Tris-HCL buffer (pH 8.0).
(§2) KM Determination: Hydrolysis of the substrate analogue inhibitors by HUK was measured by combining the test inhibitor at different concentrations on either side of the KM value with the enzyme at pH 9.0 for thirty minutes at 37 C. The cleavage products were separated from the starting material in the digest by HPLC on a Beckman octadecylsilane (ODS) column (1×25 cm) using a thirty minute gradient of from 0-70% CH3 CN in triethylammonium phosphate buffer (pH 7.0). The starting materials and reaction products were completely resolved under these conditions. Absorbance of the HPLC effluent was monitored at 220 nm. Individual fractions were collected and the amount of peptide degradation products was quantitated by counting in a liquid scintillation counter. Samples containing individual inhibitors were incubated without HUK and solvent blanks were also chromatographed and analyzed in the same way.
(§3) For test purposes, in these HUA cleavage studies, individual peptide sequences were synthesized, purified, and characterized as previously described herein. For these cleavage studies, doubly labelled peptides were prepared using [^3 H]-valine and […] respectively. In addition, 6.0N HCL-dioxane was used for removal of tert-butoxycarbonyl protecting groups and 90% hydrogen fluoride/10% anisole (volume/volume) for global deprotection on completion of the synthesis. After extraction and gel filtration on Sephadex G-15, final purification was completed by isocratic elution from a synchrom RP-P column (2.1×25 cm) with CH3 CN--H2 O (8 ml/min). The resultant peptides were deemed to be homogeneous by amino acid analysis; high performance liquid chromatography; thin layer chromatography; and A230 /A260 ratio analysis. […]

[2] = tested on: T2, CC(=O)N[C@@H](CO)C(=O)N1CCC[C@H]1C(=O)N[C@@H](Cc1ccccc1)C(=O)N[C@@H](CCCNC(=N)N)C(=O)N[C@@H](CO)C(=O)N[C@H](C(=O)N[C@@H](CCC(N)=O)C(N)=O)C(C)C; assay: as above; details: other: hydrolysis by HUK, pH 9.0, 37 C, thirty minutes
T2 construct: Human urinary kallikrein (hereinafter "HUK") was highly purified using a modification of published methods; from tissue; host or cells: human urine
Method: as §1, §2, §3

[3] = tested on: T3, CC(=O)N1CCC[C@H]1C(=O)N[C@@H](Cc1ccccc1)C(=O)N[C@@H](CCCNC(=N)N)C(=O)N[C@@H](CO)C(=O)N[C@H](C(=O)N[C@@H](CCC(N)=O)C(N)=O)C(C)C; assay: as above; details: other: hydrolysis by HUK, pH 9.0, 37 C, thirty minutes
T3 construct: Human urinary kallikrein (hereinafter "HUK") was highly purified using a modification of published methods; from tissue; host or cells: human urine
Method: as §1, §2, §3

[4] = tested on: T4, NCCCC[C@H](NC(=O)[C@H](CC1CCCCC1)NC(=O)[C@H](N)c1ccccc1)C(=O)Nc1ccc([N+](=O)[O-])cc1; assay: Km and Vmax of tripeptide 4-nitroanilides with HUK; details: other: tripeptide 4-nitroanilide as HUK substrate; pH 9.0; 37.0 °C
T4 construct: Human urinary kallikrein (hereinafter "HUK") was highly purified using a modification of published methods; from tissue; host or cells: human urine
Text: (§4) An evaluation of other possible peptide sequences and their potential effect as substrate analogue inhibitors specifically of tissue kallikrein was undertaken using chromogenic substrates comprising alternate series of tripeptide 4-nitroanilides using previously described methods [Amundsen et al., "Methods For The Determination Of Glandular Kallikrein By Means Of A Chromogenic Tripeptide Substrate," in Kinins-II. Part A. Plenum Press, 1979, pages 83-95]. This methodology relies on the capacity of HUK to cleave p-nitroaniline from specifically synthesized tripeptide 4-nitroanilines. Controls for this experimental series included S-2266 comprising D-Val-Leu-Arg-4NA; S-2444 comprising D-Glu-Gly-Arg-4NA; and S-2302 comprising D-Pro-Phe-Arg-4NA respectively. The 50% inhibitory concentration (IC50) values for each synthesized tripeptide 4-nitroanilide was determined at 37 C. at pH 9.0 using the specific kallikrein substrates S-2266 (Kabi, Helena Laboratories, Beaumont, Tex.). 4.0 nanograms (hereinafter "ng") of HUK were used in each sample. Blanks lacking S-2266 were run in parallel to correct for hydrolysis of all samples. In all cases, the amount of 4-nitroaniline generated from each tripeptide was less than 10% of that observed for the hydrolysis of S-2266.
(§5) Subsequently, the Km and Vmax for each test tripeptide 4-nitroanilide was determined using conventional techniques in an HP-8450 diode array spectrophotometer (Hewlett Packard Company) attached to a HP-85 microcomputer. The multicomponent assay program was modified to allow the simultaneous determination of the reaction velocity in four samples.

[5] = tested on: T5, N=C(N)NCCC[C@H](NC(=O)[C@H](CC1CCCCC1)NC(=O)[C@H](N)c1ccccc1)C(=O)Nc1ccc([N+](=O)[O-])cc1; assay: Km and Vmax of tripeptide 4-nitroanilides with HUK; details: other: tripeptide 4-nitroanilide as HUK substrate; pH 9.0; 37.0 °C
T5 construct: Human urinary kallikrein (hereinafter "HUK") was highly purified using a modification of published methods; from tissue; host or cells: human urine
Text: as §4, §5

[6] = tested on: T6, CC[C@H](C)[C@H](N)C(=O)N[C@@H](CC1CCCCC1)C(=O)N[C@@H](CCCNC(=N)N)C(=O)Nc1ccc([N+](=O)[O-])cc1; assay: Km and Vmax of tripeptide 4-nitroanilides with HUK; details: other: tripeptide 4-nitroanilide as HUK substrate; pH 9.0; 37.0 °C
T6 construct: Human urinary kallikrein (hereinafter "HUK") was highly purified using a modification of published methods; from tissue; host or cells: human urine
Text: as §4, §5

[7] = tested on: T7, N=C(N)NCCC[C@H](NC(=O)[C@H](CC1CCCCC1)NC(=O)[C@@H](N)C1CCCCC1)C(=O)Nc1ccc([N+](=O)[O-])cc1; assay: Km and Vmax of tripeptide 4-nitroanilides with HUK; details: other: tripeptide 4-nitroanilide as HUK substrate; pH 9.0; 37.0 °C
T7 construct: Human urinary kallikrein (hereinafter "HUK") was highly purified using a modification of published methods; from tissue; host or cells: human urine
Text: as §4, §5

[8] = tested on: T8, N=C(N)NCCC[C@H](NC(=O)[C@H](Cc1ccccc1)NC(=O)[C@H](N)C1CCCCC1)C(=O)Nc1ccc([N+](=O)[O-])cc1; assay: Km and Vmax of tripeptide 4-nitroanilides with HUK; details: other: tripeptide 4-nitroanilide as HUK substrate; pH 9.0; 37.0 °C
T8 construct: Human urinary kallikrein (hereinafter "HUK") was highly purified using a modification of published methods; from tissue; host or cells: human urine
Text: as §4, §5

[9] = tested on: T9, NCCCC[C@H](NC(=O)[C@H](CC1CCCCC1)NC(=O)[C@H](N)C1CCCCC1)C(=O)Nc1ccc([N+](=O)[O-])cc1; assay: Km and Vmax of tripeptide 4-nitroanilides with HUK; details: other: tripeptide 4-nitroanilide as HUK substrate; pH 9.0; 37.0 °C
T9 construct: Human urinary kallikrein (hereinafter "HUK") was highly purified using a modification of published methods; from tissue; host or cells: human urine
Text: as §4, §5

Human urinary kallikrein (Homo sapiens) gave a Km [1] of 307 µM, a kcat [1] of 188 mol/mol/sec and a Km [2] of 37.6 µM. The Km [3] was 482 µM, the kcat [3] was 229 mol/mol/sec and the Km [4] was 48.1 µM. It also gave a Km [5] of 1.96 µM, a Km [6] of 1.33 µM and a Km [7] of 12.5 µM. It also gave a Km [8] of 0.84 µM and a Km [9] of 46.6 µM.
